Data published in paper PMC2964165 (The EMBO Journal, 2010).

Biological target: recombinant Impβ (human, UniProt Q14974 1-876)
Assay: pull-down

Chain of recombinant Impβ (Q14974 whole entry): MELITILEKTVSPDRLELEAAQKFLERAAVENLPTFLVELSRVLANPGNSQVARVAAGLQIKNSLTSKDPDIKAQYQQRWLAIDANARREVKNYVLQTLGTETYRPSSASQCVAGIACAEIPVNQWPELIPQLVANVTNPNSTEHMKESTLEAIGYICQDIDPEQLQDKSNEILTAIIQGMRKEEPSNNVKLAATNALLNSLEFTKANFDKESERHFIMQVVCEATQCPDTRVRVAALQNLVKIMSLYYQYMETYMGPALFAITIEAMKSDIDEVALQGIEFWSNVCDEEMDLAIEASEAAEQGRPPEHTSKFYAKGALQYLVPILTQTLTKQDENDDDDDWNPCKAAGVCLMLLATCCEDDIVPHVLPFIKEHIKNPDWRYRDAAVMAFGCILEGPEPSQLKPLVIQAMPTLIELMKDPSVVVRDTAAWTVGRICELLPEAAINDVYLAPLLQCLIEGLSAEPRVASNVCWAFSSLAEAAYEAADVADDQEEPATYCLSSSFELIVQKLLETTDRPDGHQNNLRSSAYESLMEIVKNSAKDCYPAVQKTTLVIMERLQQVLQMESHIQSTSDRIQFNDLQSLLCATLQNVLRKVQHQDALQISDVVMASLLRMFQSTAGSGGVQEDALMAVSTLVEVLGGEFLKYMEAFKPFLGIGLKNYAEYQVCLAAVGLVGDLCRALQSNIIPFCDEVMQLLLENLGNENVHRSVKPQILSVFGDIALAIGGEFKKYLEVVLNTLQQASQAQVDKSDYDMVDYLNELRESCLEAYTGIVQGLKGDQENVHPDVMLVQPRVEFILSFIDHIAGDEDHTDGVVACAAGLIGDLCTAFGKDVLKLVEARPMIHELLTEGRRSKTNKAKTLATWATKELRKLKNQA

binding result: binds
B1: IBB peptide (peptide)
peptide: not shown
